Where a chain is given by its changes, count along the chain named.
B1: 220 (protein)
chain: LDNGLARTPTMGWLHWERFMCNLDCQEEPDSCISEKLFMEMAELMVSEGWKDAGYEYLCIDDCWMAPQRDSEGRLQADPQRFPHGIRQLANYVHSKGLKLGIYADVGNKTCAGFPGSFGYYDIDAQTFADWGVDLLKFDGCYCDSLENLADGYKHMSLALNRTGRSIVYSCEWPLYMWPFQKPNYTEIRQYCNHWRNFADIDDSWASIKSILDWTSFNQERIVDVAGPGGWNDPDMLVIGNFGLSWNQQVTQMALWAIMAAPLFMSNDLRHISPQAKALLQDKDVIAINQDPLGKQGYQLRQGDNFEVWERPLSGLAWAVAVINRQEIGGPRSYTIAVASLGKGVACNPACFITQLLPVKRKLGFYEWTSRLKSHVNPTGTVLLQLENTMQMSKDLLL
modifications: Synthetic Polypeptide sequence of Variant No. 220 of mature Human GLA
B2: 225 (protein)
chain: B1 chain with R165S, V322M, K373R, V376I, T389S
modifications: Synthetic Polypeptide sequence of Variant No. 182 of mature Human GLA
B3: 228 (protein)
chain: B1 chain with V322M, V376I
modifications: Synthetic Polypeptide sequence of Variant No. 228 of mature Human GLA
B4: 229 (protein)
chain: B1 chain with V322M
modifications: Synthetic Polypeptide sequence of Variant No. 229 of mature Human GLA
B5: 227 (protein)
chain: B1 chain with V322M, R325H, K373R, V376I
modifications: Synthetic Polypeptide sequence of Variant No. 227 of mature Human GLA
B6: 223 (protein)
chain: B1 chain with Q302K, V322M, A337P, A350G, K362Q, K373R, V376I
modifications: Synthetic Polypeptide sequence of Variant No. 223 of mature Human GLA
B7: 221 (protein)
chain: B1 chain with V322M, K373R, V376I, M390I
modifications: Synthetic Polypeptide sequence of Variant No. 221 of mature Human GLA
B8: 231 (protein)
chain: B1 chain with V322M, T369D, K373R, V376I
modifications: Synthetic Polypeptide sequence of Variant No. 231 of mature Human GLA
B9: 226 (protein)
chain: B1 chain with R221T, V322M, F365L, K373R, V376I
modifications: Synthetic Polypeptide sequence of Variant No. 226 of mature Human GLA
B10: 192 (protein)
chain: B1 chain with A206E, V322M, K373R, V376I
modifications: Synthetic Polypeptide sequence of Variant No. 192 of mature Human GLA
B11: 193 (protein)
chain: B1 chain with A206G, V322M, K373R, V376I
modifications: Synthetic Polypeptide sequence of Variant No. 193 of mature Human GLA
B12: 232 (protein)
chain: B1 chain with V322M, T369S, K373R, V376I
modifications: Synthetic Polypeptide sequence of Variant No. 232 of mature Human GLA
B13: 224 (protein)
chain: B1 chain with Q302K, E367N, K373R, V376I
modifications: Synthetic Polypeptide sequence of Variant No. 224 of mature Human GLA
B14: 230 (protein)
chain: B1 chain with V322M, K373R, S374R, V376I
modifications: Synthetic Polypeptide sequence of Variant No. 230 of mature Human GLA
B15: 222 (protein)
chain: B1 chain with P228Q, V322M, T369D, K373R, V376I
modifications: Synthetic Polypeptide sequence of Variant No. 222 of mature Human GLA

Experiment: HTP-analysis of yeast culture supernatants, no challenge (MUGal hydrolysis)
Format: biochemical
Settings: activity of the variant/activity of Rd2BB (SEQ ID NO: 10), yeast supernatant
How it was run: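 GLA variants were expressed in INVSc1 yeast grown in SD-Ura broth with glucose at 30° C., and culture supernatants were collected after 66-84 h. Supernatant was mixed with McIlvaine buffer pH 4.8 and MUGal (2 mM stock) in 50 mM citrate, 200 mM KCl, pH 4.6, incubated at 37° C. for 30-180 minutes, then quenched with sodium carbonate.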

For B1, which “Relative Activity of GLA Variants After No Challenge (NC)” value is on record?
Its value is “+ (+ = 0.5 to 1.5 relative activity over Rd2BB (SEQ ID NO: 10))”.

With B2 as the molecule, how does the “Relative Activity of GLA Variants After No Challenge (NC)” value read?
The value was “+ (+ = 0.5 to 1.5 relative activity over Rd2BB (SEQ ID NO: 10))”.

For B3, which “Relative Activity of GLA Variants After No Challenge (NC)” value is on record?
The value was “+ (+ = 0.5 to 1.5 relative activity over Rd2BB (SEQ ID NO: 10))”.

For B4, which “Relative Activity of GLA Variants After No Challenge (NC)” value is on record?
The value was “+ (+ = 0.5 to 1.5 relative activity over Rd2BB (SEQ ID NO: 10))”.

With B5 as the molecule, how does the “Relative Activity of GLA Variants After No Challenge (NC)” value read?
The value was “− (− = <0.5 relative activity over Rd2BB (SEQ ID NO: 10))”.

With B6 as the molecule, how does the “Relative Activity of GLA Variants After No Challenge (NC)” value read?
The value was “+ (+ = 0.5 to 1.5 relative activity over Rd2BB (SEQ ID NO: 10))”.

Which “Relative Activity of GLA Variants After No Challenge (NC)” value does the source give for B7 here?
The value was “+ (+ = 0.5 to 1.5 relative activity over Rd2BB (SEQ ID NO: 10))”.

For B8, which “Relative Activity of GLA Variants After No Challenge (NC)” value is on record?
The value was “++ (++ = 1.5 to 2.5 relative activity over Rd2BB (SEQ ID NO: 10))”.

Which “Relative Activity of GLA Variants After No Challenge (NC)” value does the source give for B9 here?
Its value is “+ (+ = 0.5 to 1.5 relative activity over Rd2BB (SEQ ID NO: 10))”.

For B10, which “Relative Activity of GLA Variants After No Challenge (NC)” value is on record?
The value was “+ (+ = 0.5 to 1.5 relative activity over Rd2BB (SEQ ID NO: 10))”.

Which “Relative Activity of GLA Variants After No Challenge (NC)” value does the source give for B11 here?
Its value is “+ (+ = 0.5 to 1.5 relative activity over Rd2BB (SEQ ID NO: 10))”.

For B12, which “Relative Activity of GLA Variants After No Challenge (NC)” value is on record?
The value was “++ (++ = 1.5 to 2.5 relative activity over Rd2BB (SEQ ID NO: 10))”.

With B13 as the molecule, how does the “Relative Activity of GLA Variants After No Challenge (NC)” value read?
The value was “++ (++ = 1.5 to 2.5 relative activity over Rd2BB (SEQ ID NO: 10))”.

With B14 as the molecule, how does the “Relative Activity of GLA Variants After No Challenge (NC)” value read?
The value was “+ (+ = 0.5 to 1.5 relative activity over Rd2BB (SEQ ID NO: 10))”.

With B15 as the molecule, how does the “Relative Activity of GLA Variants After No Challenge (NC)” value read?
Its value is “++ (++ = 1.5 to 2.5 relative activity over Rd2BB (SEQ ID NO: 10))”.

Experiment: HTP-analysis of supernatants pretreated with acid (MUGal hydrolysis)
Format: biochemical
Settings: challenge at pH 4.2; activity of the variant/activity of Rd2BB (SEQ ID NO: 10); yeast supernatant
How it was run: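 Yeast INVSc1 supernatant, GLA variants; acid challenge: McIlvaine pH 3.3-4.3, 37° C., 1-3 h. Assay: MUGal in McIlvaine pH 4.8 plus citrate pH 4.3, 37° C., 30-180 min, Na2CO3 stop, Ex 355/Em 448 nm.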

With B1 as the molecule, how does the “Relative Activity of GLA Variants After Challenge at pH 4.2” value (shortened to “Relative Activity … at pH 4.2”) read?
Its value is “+ (+ = 0.5 to 1.5 relative activity over Rd2BB (SEQ ID NO: 10))”.

For B2, which “Relative Activity … at pH 4.2” value is on record?
The value was “+ (+ = 0.5 to 1.5 relative activity over Rd2BB (SEQ ID NO: 10))”.

With B3 as the molecule, how does the “Relative Activity … at pH 4.2” value read?
The value was “+ (+ = 0.5 to 1.5 relative activity over Rd2BB (SEQ ID NO: 10))”.

Which “Relative Activity … at pH 4.2” value does the source give for B4 here?
Its value is “− (− = <0.5 relative activity over Rd2BB (SEQ ID NO: 10))”.

For B5, which “Relative Activity … at pH 4.2” value is on record?
The value was “− (− = <0.5 relative activity over Rd2BB (SEQ ID NO: 10))”.

For B6, which “Relative Activity … at pH 4.2” value is on record?
The value was “++ (++ = 1.5 to 2.5 relative activity over Rd2BB (SEQ ID NO: 10))”.

With B7 as the molecule, how does the “Relative Activity … at pH 4.2” value read?
The value was “+ (+ = 0.5 to 1.5 relative activity over Rd2BB (SEQ ID NO: 10))”.

With B8 as the molecule, how does the “Relative Activity … at pH 4.2” value read?
The value was “++ (++ = 1.5 to 2.5 relative activity over Rd2BB (SEQ ID NO: 10))”.

Which “Relative Activity … at pH 4.2” value does the source give for B9 here?
Its value is “+ (+ = 0.5 to 1.5 relative activity over Rd2BB (SEQ ID NO: 10))”.

Which “Relative Activity … at pH 4.2” value does the source give for B10 here?
The value was “+ (+ = 0.5 to 1.5 relative activity over Rd2BB (SEQ ID NO: 10))”.

Which “Relative Activity … at pH 4.2” value does the source give for B11 here?
The value was “+ (+ = 0.5 to 1.5 relative activity over Rd2BB (SEQ ID NO: 10))”.

With B12 as the molecule, how does the “Relative Activity … at pH 4.2” value read?
The value was “++ (++ = 1.5 to 2.5 relative activity over Rd2BB (SEQ ID NO: 10))”.

For B13, which “Relative Activity … at pH 4.2” value is on record?
Its value is “+++ (+++ = >2.5 relative activity over Rd2BB (SEQ ID NO: 10))”.

For B14, which “Relative Activity … at pH 4.2” value is on record?
The value was “− (− = <0.5 relative activity over Rd2BB (SEQ ID NO: 10))”.

With B15 as the molecule, how does the “Relative Activity … at pH 4.2” value read?
Its value is “++ (++ = 1.5 to 2.5 relative activity over Rd2BB (SEQ ID NO: 10))”.

Experiment: HTP-analysis of supernatants pretreated with base (MUGal hydrolysis)
Format: biochemical
Settings: challenge at pH 7.6; activity of the variant/activity of Rd2BB (SEQ ID NO: 10); yeast supernatant
How it was run: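 GLA variants were secreted by transformed INVSc1 yeast grown 66-84 h at 30° C. Supernatants were exposed to neutral-to-basic buffers (pH 7.0-9.7) at 37° C for 1-18 h, then assayed with MUGal in acidic citrate/McIlvaine buffer, with fluorescence read after quenching.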

For B1, which “Relative Activity of GLA Variants After Challenge at pH 7.6” value (shortened to “Relative Activity … at pH 7.6”) is on record?
The value was “++ (++ = 1.5 to 2.5 relative activity over Rd2BB (SEQ ID NO: 10))”.

For B2, which “Relative Activity … at pH 7.6” value is on record?
The value was “+ (+ = 0.5 to 1.5 relative activity over Rd2BB (SEQ ID NO: 10))”.

Which “Relative Activity … at pH 7.6” value does the source give for B3 here?
Its value is “+ (+ = 0.5 to 1.5 relative activity over Rd2BB (SEQ ID NO: 10))”.

Which “Relative Activity … at pH 7.6” value does the source give for B4 here?
The value was “+ (+ = 0.5 to 1.5 relative activity over Rd2BB (SEQ ID NO: 10))”.

For B5, which “Relative Activity … at pH 7.6” value is on record?
Its value is “− (− = <0.5 relative activity over Rd2BB (SEQ ID NO: 10))”.

With B6 as the molecule, how does the “Relative Activity … at pH 7.6” value read?
The value was “++ (++ = 1.5 to 2.5 relative activity over Rd2BB (SEQ ID NO: 10))”.

With B7 as the molecule, how does the “Relative Activity … at pH 7.6” value read?
The value was “+ (+ = 0.5 to 1.5 relative activity over Rd2BB (SEQ ID NO: 10))”.

For B8, which “Relative Activity … at pH 7.6” value is on record?
Its value is “++ (++ = 1.5 to 2.5 relative activity over Rd2BB (SEQ ID NO: 10))”.

Which “Relative Activity … at pH 7.6” value does the source give for B9 here?
Its value is “++ (++ = 1.5 to 2.5 relative activity over Rd2BB (SEQ ID NO: 10))”.

With B10 as the molecule, how does the “Relative Activity … at pH 7.6” value read?
Its value is “+ (+ = 0.5 to 1.5 relative activity over Rd2BB (SEQ ID NO: 10))”.

For B11, which “Relative Activity … at pH 7.6” value is on record?
Its value is “+ (+ = 0.5 to 1.5 relative activity over Rd2BB (SEQ ID NO: 10))”.

With B12 as the molecule, how does the “Relative Activity … at pH 7.6” value read?
The value was “++ (++ = 1.5 to 2.5 relative activity over Rd2BB (SEQ ID NO: 10))”.

For B13, which “Relative Activity … at pH 7.6” value is on record?
Its value is “+++ (+++ = >2.5 relative activity over Rd2BB (SEQ ID NO: 10))”.

For B14, which “Relative Activity … at pH 7.6” value is on record?
The value was “+ (+ = 0.5 to 1.5 relative activity over Rd2BB (SEQ ID NO: 10))”.

With B15 as the molecule, how does the “Relative Activity … at pH 7.6” value read?
The value was “+ (+ = 0.5 to 1.5 relative activity over Rd2BB (SEQ ID NO: 10))”.

Source: patent US11278600B2, “Human alpha-galactosidase variants” (Codexis, Inc., priority 2014, dated 2022)
